Source: article PMC4213368, “Elucidation of a protein-protein interaction network involved in Corynebacterium glutamicum cell wall biosynthesis as determined by bacterial two-hybrid analysis” (Glycoconjugate Journal, 2014)
Several values for one entry are separate records, joined by “and”; a condition that tells them apart may be missing. Identical values can stand only once.

What was measured:
Assay in all cases: two-hybrid; BACTH in E. coli BTH101, same co-transformants; β-galactosidase activity in Miller units, mean of 3 independent assays; negative control with empty vectors 86 ± 11 Miller units
[1] = biological target: AftC (Corynebacterium glutamicum ATCC 13032) (UniProt Q8NPB7)
[2] = biological target: AftB (Corynebacterium glutamicum ATCC 13032) (UniProt Q8NLR0)
[3] = biological target: AftA (Corynebacterium glutamicum ATCC 13032) (UniProt Q8NTW4)
[4] = biological target: DprE2 (Corynebacterium glutamicum ATCC 13032)
[5] = biological target: UbiA (Corynebacterium glutamicum ATCC 13032)
[6] = biological target: WecA (Corynebacterium glutamicum ATCC 13032)
[7] = biological target: Emb (Corynebacterium glutamicum ATCC 13032)
[8] = biological target: the molecule itself

UbiA (enzyme)
β-galactosidase activity [1]: 755 Miller units | β-galactosidase activity [2]: 1020 Miller units | β-galactosidase activity [3]: 387 Miller units

DprE1 (enzyme)
β-galactosidase activity [4]: 637 Miller units and 1030 Miller units

WbbL (enzyme)
β-galactosidase activity [5]: 1090 Miller units and 1200 Miller units

WecA (enzyme)
β-galactosidase activity [6]: 487 Miller units | β-galactosidase activity [1]: 1050 Miller units | β-galactosidase activity [2]: 1080 Miller units | β-galactosidase activity [5]: 1020 Miller units | β-galactosidase activity [7]: 1350 Miller units

B1: AftA (enzyme, Corynebacterium glutamicum ATCC 13032, UniProt Q8NTW4 1-661, looked up)
chain: MNPYGPSRVPEGEVYRPDRLNRKATLVAIVGAAILAFAFALVLWMGLKQTNLPAFGPSNVTRAVASATIAAVLIVTGFLTWLWLRDEHQSNPRWELEDVKPRPKWRTALTYLASYLSPAALVVAVLAIPLSATRLYLDGISVDQGFRTQFLTRMADDIGLSDMNYIDMPTFYPAGWFWLGGRLANLLGLPGWEAFQPWAIVSMAVAASVLVPVWQRITGSLPVATGIALVTTCIILAMNSEEPYAAIVAMGIPAMLVLASRIAKGDKFALAGGIIYLGVSATFYTLFTGAIALSAVAVCIVVAAIVQRSIKPLLWLAVLGGGSIVIALISWGPYLLASINGAERSGDSATHYLPLEGTQFPVPFLASSVVGLLCLVGLIYLVVRFHNNEVRAMWVGIAVFYAWMGMSMAITLLGNTLLGFRLDTVLVLIFATAGVLGIADFRLASVYQLYPTQITERTATHLTNLIVVLVLLGGLYYAQDLPQKNARAIDLAYTDTDGYGERADLYPAGAARYYKDINDHLLDQGFEPSETVVLTDELDFMSYYPYRGYQAFTSHYANPLGEFGNRNAFIEDLAIRSWDELADPQQFSDALNTSPWTIPEVFIFRGSIDDPDAGWKYDVAEDLYPNNPNVRFRGVYFNPESFDQMWQTKQVGPFVVVTHNE
notes: AftA, arabinofuranosyltransferase, transmembrane, Corynebacterium glutamicum ATCC 13032; gene amplified from genomic DNA; One molecule for all four fusion forms; also called arabinofuranosyltransferase AftA; AftA-T25^N; source: E. coli BTH101, bacterial two-hybrid (BACTH) fusion; not shown: T25 or T18 fragment of Bordetella pertussis adenylate cyclase, N-terminal or C-terminal (each tested), kept
β-galactosidase activity [8]: 714 Miller units

B2: AftC (enzyme, Corynebacterium glutamicum ATCC 13032, UniProt Q8NPB7 1-418, looked up)
chain: MSFSPVAPSISAPTPRRSRWDSIGNAVAWPLAMLLMAHRFFVLAINGAVTDDFTTVYSALRRFVEGIPVYNEVYHFVDPHYLYNPGATLLLAPLGYITHFTLARWMFIAVNLLAIVLAFGLLTRLSGWALRSMVWPIAIALAMLTETVQNTLIFSNINGILLLMLAIFLWCVVHKKSWLGGLVIGLAILIKPMFLPLLFLPLVKKQWGSLILGILTPVIFNAVAWFLVPGASEYVTRTMPYLGETRDFANSSLPGLAIYFGMPTWMEITWFLIFGAMVGLAVLALLRFRNTEPYFWAATTTGVLLTGVFFLSSLGQMYYSMMIFPMIFTLLGSRSVFHNWVAWVAAYFFLSPDTFTSQRLPDVARWMEFFSATVGWGLLIVVTFVSALIWFIGDIRAKGTPSSPITTDPTHDHLERTA
notes: AftC, arabinofuranosyltransferase, transmembrane, Corynebacterium glutamicum ATCC 13032; gene amplified from genomic DNA; One molecule for all four fusion forms; also called arabinofuranosyltransferase AftC; AftC-T25^C; source: E. coli BTH101, bacterial two-hybrid (BACTH) fusion; not shown: T25 or T18 fragment of Bordetella pertussis adenylate cyclase, N-terminal or C-terminal (each tested), kept
β-galactosidase activity [8]: 398 Miller units

B3: AftB (enzyme, Corynebacterium glutamicum ATCC 13032, UniProt Q8NLR0 1-686, looked up)
chain: MTFSPQRPEFETGKQPDPETEHAGDFFEETSSSAPRAASNGSSGPNYTLITTFLAALTAGIFAFWAGWTRKWISDDGLIVLRTVRNLLAGNGPVFNAGERVEANTSTLWQYCIYLVALVTDYRLEDIALWLALLFTTAASIIGVLGTAHLHRKRIAVLLPAGVIGYFSLSPARDFATSGLEWGLSLMWISIQWLLLVLWATSGKTSGKKASGAKTSNPIVNAGAITYALAFWSGLSWLVRPELAMYGGLTGVLLLLTAPRWRVVLGILVAALPLPAAYQIFRMGYYGLMVPHTAVAKSASDAVWGTGWEYVEDFTGPYNLWLGLALLLAAGALTVWKTDKHLAIPKGRLGLRTPGMAIALLVICALVHFLYVIRVGGDFMHGRMLLLPLFAILLPVSVIPVNVVDRGWQDLVALVLVFSTWVWSTVVFVQGHQWENTGQHVVDERDFWIDFTNRDEDHPPLYAEDFLTVDSMNDYAEVMRDQTLVNPTGQQLNILASSDPTTYSWITTPRVEGVEAGDLANLSPTVFHVNLGMTSMNAPLNVRVTDLIGLATPLAARQPRIEGGRIGHDKLMDLEWQVAESATPLAYTPGWLDTQKTYEARQALRHPELVHLFQTYREPMSYHRFVDNIKYALTTGRTLEISDNPEDLLKEFNPTPAEIQDGLETIAWPGEIKLDEPRGEPLYSSQ
notes: AftB, arabinofuranosyltransferase, transmembrane, Corynebacterium glutamicum ATCC 13032; gene amplified from genomic DNA; One molecule for all four fusion forms; also called arabinofuranosyltransferase AftB; AftB-T25^N; source: E. coli BTH101, bacterial two-hybrid (BACTH) fusion; not shown: T25 or T18 fragment of Bordetella pertussis adenylate cyclase, N-terminal or C-terminal (each tested), kept
β-galactosidase activity [8]: 1180 Miller units
